Assay results as given in article PMC3237458 (2011).
Square brackets hold non-standard residues; d marks the D form. Ends that are not written are not given here. * marks the point of attachment. Biotin = O=C1N[C@H]2[C@H](CS[C@H]2CCCCC(=O)*)N1; Ahx = NCCCCCC(=O)O

What was measured:
EphB4 Fc [1] = biological target: T1, EphB4 Fc (UniProt P54761 16-539); assay: ELISA
T1 chain: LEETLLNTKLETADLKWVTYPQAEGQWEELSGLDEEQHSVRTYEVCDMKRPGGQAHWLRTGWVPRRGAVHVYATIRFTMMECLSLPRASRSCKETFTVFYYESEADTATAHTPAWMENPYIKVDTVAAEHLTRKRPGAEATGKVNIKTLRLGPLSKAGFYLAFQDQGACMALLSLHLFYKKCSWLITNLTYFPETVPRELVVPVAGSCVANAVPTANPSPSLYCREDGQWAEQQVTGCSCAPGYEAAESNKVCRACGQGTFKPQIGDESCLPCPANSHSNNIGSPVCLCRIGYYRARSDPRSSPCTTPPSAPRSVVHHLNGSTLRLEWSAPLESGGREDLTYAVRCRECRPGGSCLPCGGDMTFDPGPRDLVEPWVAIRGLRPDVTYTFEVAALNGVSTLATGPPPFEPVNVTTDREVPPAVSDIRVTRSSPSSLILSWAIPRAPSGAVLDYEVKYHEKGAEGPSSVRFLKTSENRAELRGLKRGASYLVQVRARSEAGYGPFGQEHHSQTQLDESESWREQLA

mouse EphB4 AP = biological target: T2, mouse EphB4 AP (mouse, UniProt P54761 16-539); assay: ELISA
T2 chain: T1 chain

EphB4 Fc [2] = biological target: T1, EphB4 Fc; assay: ELISA; competition with ephrin-B2 AP

TNYLFSPNGPIARAW[Ahx]K(Biotin) [biotinylated TNYL-RAW peptide]
Kd (EphB4 Fc [1]): 2.7 nM
Kd (mouse EphB4 AP): 11 nM

{PEG 40 kDa branched (NHS-glutaryl)}-TNYLFSPNGPIARAW [PEGylated TNYL-RAW (PEG-TNYL-RAW)]
Kd (EphB4 Fc [1]): 2.9 nM
IC50 (EphB4 Fc [2]): 24 nM

TNYLFSPNGPIARAW [TNYL-RAW peptide]
IC50 (EphB4 Fc [2]): 13 nM

TNYLFSPNGPIARAWGSGSK (Fc fusion) [TNYL-RAW fused with human Fc (TNYL-RAW-Fc)]
Kd (mouse EphB4 AP): 4.7 nM
IC50 (EphB4 Fc [2]): 6.5 nM
